Ends that are not written are not given here.
Target: E3 ligase MDM2 (Homo sapiens, UniProt Q00987)
Assay: Peptide-photocatalyst conjugate labeling of MDM2 versus BSA
Details: peptide conjugated to photocatalyst through azido-lysine

E3 ligase MDM2, sequence (Q00987 whole entry): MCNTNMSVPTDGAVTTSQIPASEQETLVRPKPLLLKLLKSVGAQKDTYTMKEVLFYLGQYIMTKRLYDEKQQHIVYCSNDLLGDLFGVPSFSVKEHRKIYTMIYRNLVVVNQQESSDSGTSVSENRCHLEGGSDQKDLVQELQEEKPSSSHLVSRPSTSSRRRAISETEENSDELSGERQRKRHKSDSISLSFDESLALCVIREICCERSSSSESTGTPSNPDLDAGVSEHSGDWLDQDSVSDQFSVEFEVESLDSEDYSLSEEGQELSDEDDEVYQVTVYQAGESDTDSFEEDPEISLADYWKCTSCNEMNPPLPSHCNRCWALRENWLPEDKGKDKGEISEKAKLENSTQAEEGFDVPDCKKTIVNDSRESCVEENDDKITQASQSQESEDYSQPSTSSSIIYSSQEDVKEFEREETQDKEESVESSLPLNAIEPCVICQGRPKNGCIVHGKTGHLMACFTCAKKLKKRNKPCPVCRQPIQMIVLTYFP

enrichment of target protein MDM2 compared to free photocatalyst control: 3 fold
Substance: ATSP7041: α-helical stapled cyclic peptide targeting MDM2, conjugated to the photocatalyst through a modified azido-lysine (KLTFAEYWAQAASAA; staple (positions not given here); also: stapled, places not given here, photocatalyst conjugated via azido-lysine, place not given here)

From patent US20220306683A1, “PROXIMITY-BASED LABELING SYSTEMS AND APPLICATIONS THEREOF” (The Trustees of Princeton University, priority 2019, published 2022)
